Reference: patent US20150283262A1 (AstraZeneca / MedImmune, published 2015)
Like-named read-outs stand apart in the source and are kept apart here.

How the values were obtained:
Assay in all cases: cell-based or functional assay
[1] = molecular target: T1, CD19 on CD19 +ve cell lines (Daudi, Ramos, WSU-DLCL2) (human, UniProt P15391 20-556)
T1 sequence (looked up): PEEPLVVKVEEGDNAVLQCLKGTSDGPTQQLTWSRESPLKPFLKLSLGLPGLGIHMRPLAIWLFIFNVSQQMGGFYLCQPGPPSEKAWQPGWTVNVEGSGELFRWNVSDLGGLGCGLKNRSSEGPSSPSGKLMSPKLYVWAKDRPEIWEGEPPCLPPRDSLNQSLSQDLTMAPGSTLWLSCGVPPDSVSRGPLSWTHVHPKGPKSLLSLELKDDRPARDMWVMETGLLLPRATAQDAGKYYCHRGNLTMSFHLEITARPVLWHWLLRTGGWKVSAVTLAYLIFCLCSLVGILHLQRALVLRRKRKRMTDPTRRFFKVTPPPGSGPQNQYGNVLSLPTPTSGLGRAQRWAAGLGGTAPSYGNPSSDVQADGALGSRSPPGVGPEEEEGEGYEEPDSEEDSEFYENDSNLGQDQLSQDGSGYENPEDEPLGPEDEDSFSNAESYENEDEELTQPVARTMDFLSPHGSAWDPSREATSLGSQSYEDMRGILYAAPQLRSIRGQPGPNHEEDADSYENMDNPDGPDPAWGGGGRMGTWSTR

[2] = molecular target: T1, CD19 on CD19 +ve cell lines (Daudi, …); remark: listed apart in the source
[3] = molecular target: T1, CD19 on CD19 +ve cell lines (Daudi, …); remark: listed apart in the source

B1: RB4v1.2-A (anti-CD19 antibody RB4v1.2 conjugated to PBD drug linker A) (antibody, DAR 2.2, V domains shown)
VH: QVQLVQPGAEVVKPGASVKLSCKTSGYTFTSNWMHWVKQAPGQGLEWIGEIDPSDSYTNYNQNFQGKAKLTVDKSTSTAYMEVSSLRSDDTAVYYCARGSNPYYYAMDYWGQGTSVTVS
VL: EIVLTQSPAIMSASPGERVTMTCSASSGVNYMHWYQQKPGTSPRRWIYDTSKLASGVPARFSGSGSGTSYSLTISSMEPEDAATYYCHQRGSYTFGGGTKLEIK
modifications: PBD dimer drug linker A attached to cysteine thiols after TCEP reduction; positions not given; DAR 2.2 for the whole ADC
EC50 (µg/mL), in vitro cytotoxicity, Alamar Blue cell survival, Daudi cells [1]: 0.00112 µg/mL
EC50 (µg/mL), in vitro cytotoxicity, Alamar Blue cell survival, Ramos cells [1]: 0.00102 µg/mL
EC50 (µg/mL), in vitro cytotoxicity, Alamar Blue cell survival, WSU-DLCL2 cells [1]: 0.117 µg/mL

B2: RB4v1.2-D (anti-CD19 antibody RB4v1.2 conjugated to PBD drug linker D) (antibody, DAR 2.18, V domains shown)
VH: QVQLVQPGAEVVKPGASVKLSCKTSGYTFTSNWMHWVKQAPGQGLEWIGEIDPSDSYTNYNQNFQGKAKLTVDKSTSTAYMEVSSLRSDDTAVYYCARGSNPYYYAMDYWGQGTSVTVS
VL: EIVLTQSPAIMSASPGERVTMTCSASSGVNYMHWYQQKPGTSPRRWIYDTSKLASGVPARFSGSGSGTSYSLTISSMEPEDAATYYCHQRGSYTFGGGTKLEIK
modifications: PBD dimer drug linker D (iodoacetamide) attached to cysteine thiols after TCEP reduction; positions not given; DAR 2.18 for the whole ADC
EC50 (µg/mL), in vitro cytotoxicity, Alamar Blue cell survival, Daudi cells [2]: 0.00102 µg/mL
EC50 (µg/mL), in vitro cytotoxicity, Alamar Blue cell survival, Ramos cells [2]: 0.000798 µg/mL
EC50 (µg/mL), in vitro cytotoxicity, Alamar Blue cell survival, WSU-DLCL2 cells [2]: 0.0219 µg/mL

B3: RB4v1.2-E (anti-CD19 antibody RB4v1.2 conjugated to PBD drug linker E) (antibody, DAR 1.93, V domains shown)
VH: QVQLVQPGAEVVKPGASVKLSCKTSGYTFTSNWMHWVKQAPGQGLEWIGEIDPSDSYTNYNQNFQGKAKLTVDKSTSTAYMEVSSLRSDDTAVYYCARGSNPYYYAMDYWGQGTSVTVS
VL: EIVLTQSPAIMSASPGERVTMTCSASSGVNYMHWYQQKPGTSPRRWIYDTSKLASGVPARFSGSGSGTSYSLTISSMEPEDAATYYCHQRGSYTFGGGTKLEIK
modifications: PBD dimer drug linker E attached to cysteine thiols after TCEP reduction; positions not given; DAR 1.93 for the whole ADC
EC50 (µg/mL), in vitro cytotoxicity, Alamar Blue cell survival, Daudi cells [3]: 0.00122 µg/mL
EC50 (µg/mL), in vitro cytotoxicity, Alamar Blue cell survival, Ramos cells [3]: 0.00147 µg/mL
EC50 (µg/mL), in vitro cytotoxicity, Alamar Blue cell survival, WSU-DLCL2 cells [3]: 0.031 µg/mL
